The supplement of paper PMC9170038

Columns and labels:
Conditions in all cases: FMN input: 0 or 200 uM; Eterna round: R93 (includes R88 designs)
[1] = test system: MS2 coat protein; test: apparent KD of MS2 coat protein, switch ON state; designed switch direction (-1 OFF switch, 1 ON switch): 1; higher = weaker reporter binding
Summary of the method: (§1)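 Apparent KD is reported per design as the median of normalised binding-curve fits across its clusters. The RNA switches were made by on-chip transcription from Illumina sequencing clusters. SNAP-549-labelled MS2 coat protein was then added in twofold steps (0.7 or 1.5 nM to 3 µM; 0.8–1.5 h to 10–20 min per step) in 100 mM Tris-HCl pH 7.5, 80 mM KCl, 4 mM MgCl2, without or with constant ligand.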

[2] = test system: MS2 coat protein; test: apparent KD of MS2 coat protein, switch OFF state (with FMN for OFF switches, without FMN for ON switches); designed switch direction (-1 OFF switch, 1 ON switch): 1; higher = weaker reporter binding
Summary of the method: as §1

[3] = test system: MS2 coat protein; test: apparent KD of MS2 coat protein, switch OFF state (with FMN for OFF switches, without FMN for ON switches); designed switch direction (-1 OFF switch, 1 ON switch): -1; higher = weaker reporter binding
Summary of the method: as §1

[4] = test system: MS2 coat protein; test: apparent KD of MS2 coat protein, switch ON state; designed switch direction (-1 OFF switch, 1 ON switch): -1; higher = weaker reporter binding
Summary of the method: as §1

Sequence | apparent KD of MS2 coat protein [1] | apparent KD of MS2 coat protein [2] | apparent KD of MS2 coat protein [3] | apparent KD of MS2 coat protein [4]
AAAGACAUAGUUCAGGAUAUGGUAAUAGUCACAUGAGGAUCACCCAUGUGCAUUUAUAUGCGCGAUCAGAAGGGAGGUAGAUAUA [SameState2 Malc#18] | 18.8 nM | 17.7 nM |  | 
AAGAAACAUGAGGAUCACCCAUGUAAGAUAAACACAGGAUAUGCGAAAUAAAUAAAUAAAGCAGAAGGGUGAAGAA [Mat - Same State 1 - Tesla mod - D149] | 6.88 nM | 19.4 nM |  | 
GAAAAACAUGAGGAUCACCCAUGUAGAAAUAUGGGAGGAUAUACAAAGACGAAAGUCAAAGUAGAAGGCCUGAAGA [Mat - Same State 1 - JL mod - D91] | 27.1 nM | 73.1 nM |  | 
AGUAAACAUGAGGAUCACCCAUGUGGUGGCCCAUGAGGAUAUCCAUGCGCAAUGCGCAUAGGAGAAGGCAUAGCCA [Enenerla] | 125 nM | 52.6 nM |  | 
AUAAAACAUGAGGAUCACCCAUGUAGAAAUAUGGGAGGAUAUACAAGGACGAAAGUCAAGGUAGAAGGCCUAAAAG [Mat - Same State 1 - Meechl mod - D119] | 25 nM | 126 nM |  | 
UAAAAAAAAAGACAGGAUAUCCAAAAGAAAACAUGAGGAUCACCCAUGUAAAAGAAAAUAAAAUGGGAGAAGGGUCAAAAAAAAU [Mat - Same State 2 - JL mod - D79] | 31 nM | 53.5 nM |  | 
CGGAGACAUGAGGAUCACCCAUGUGAGAAGAGGCGAGGAUAUCGAAAGAAAGAAGAGAAACGAGAAGGCGCGAGUC [salish99-SS1-078] | 20.4 nM | 25 nM |  | 
AAAACCUGCGUCGAGGAUAUGUAGCCCACUACAUGAGGAUCACCCAUGUGGAUCUUACUGGGUCGACAGAAGGUGAAAGUAAGGC [Ustionon] | 49.3 nM | 39.4 nM |  | 
CCUAGGAAGAGAGAGGAUAUCCAAAGGAAAACAUGAGGAUCACCCAUGUAAAAGGUAGGAAAUUGGGAGAAGGCUCAAGAGAGAG [salish99-ss2-088] | 20.9 nM | 23.9 nM |  | 
AAUAUACAUGAGGAUCACCCAUGUUAGGUGGGUCAAGGAUAUCAAAAUAAAUAAAGAACAUGAGAAGGUGAAUAAA [JR_SS001_Sub018] | 207 nM | 161 nM |  | 
AUAUAUAUAAGGUAGGAUAUACUAAAGUAAACAUGAGGAUCACCCAUGUAAAGAAAGAAACUCAUGUAGAAGGACCAUAUAUAUAU [Ex 6 sub 1] | 24.8 nM | 163 nM |  | 
AUACAAACGUAUGAGGAUAUCCUUAAUAAAACAUGAGGAUCACCCAUGUGAAUAAAAUAACAAUUGGAGAAGGCAUACGUACAAU [Mat - Same state - Malcolm Mod - D137] | 16.6 nM | 18.9 nM |  | 
AAGAAACAUGAGGAUCACCCAUGUAGAAAUAUGGGAGGAUAUACGAGGACGAAAGUCAAAGUAGAAGGCCUAAGAA [Mat - Same State 1 - Meechl mod - D130] | 19.6 nM | 66.9 nM |  | 
UUUCAUUACACGAAGGAUAUCGCUUUUCAGACAUGAGGAUCACCCAUGUAGUAGAUUUCCCUGUUCGAGAAGGUCGCGGGUGAAC [JR_SS002_Sub603] | 51.5 nM | 70.4 nM |  | 
CGAAGACAUGAGGAUCACCCAUGUGGGAUUAUGGGAGGAUAUACAAAGACGAGAGUCAGAGUAGAAGGCCUAGGAC [salish99-ss1-127(!)] | 26 nM | 33.4 nM |  | 
AAAUAAAUGACUAAGGAUAUAUCAAAGAAAACAUGAGGAUCACCCAUGUAAUAAUAAAAAGGGUGAUAGAAGGUAGUCAACAAAC [74%, More Paria 4] | 23.7 nM | 221 nM |  | 
AAAUAAAGGACUGAGGAUAUACCACAUGAAACAUGAGGAUCACCCAUGUAGAAAUACAAAGGGUGGUAGAAGGUAGUCCACAAAC [Same State 2.5 so lets mod hyphema)] | 45.9 nM | 68.9 nM |  | 
AGAAAUAAAAGCUAGGAUAUCCAAAAGAAAACAUGAGGAUCACCCAUGUAAAAGAAAAUAAAGUGGGAGAAGGAGCAAAAUAAGA [Starry modified] | 18 nM | 35.6 nM |  | 
UUUUGACAUGAGGAUCACCCAUGUCAGGAUAUAGUAAGAAAAAAAAAAAAAAAAACUACUAGAAGGGAUAUGGA [Amethyst 51] |  |  | 25.4 nM | 24.5 nM
AAGAAGUGAGGAUAUCGAAGACUGUCGAAAAGACAGUCGAACGAGAAGGCACAUGAGGAUCACCCAUGUGGGAG [Mat - Exaclusion 4 - Eli mod - D71] |  |  | 176 nM | 80.5 nM
AACUGACAUGAGGAUCACCCAUGUCAGGAUAUGAUUUGACGAAAUAAAUAAAGUCAUAUCAGAAGGGACAUGGA [Design 80: Sub-opt U] |  |  | 50.4 nM | 25 nM
